According to the supplement of paper PMC9112550, “Optimization of the antimicrobial peptide Bac7 by deep mutational scanning” (BMC Biology, 2022):

System: Escherichia coli TOP10
Assay: shrunken log2 fold change of peptide-encoding DNA abundance (4.5 h post-induction vs induction); higher = less antimicrobial activity (less host growth inhibition)
Settings: time post-induction: 4.5 h; library: site-saturation at positions 5, 18, 19, 20
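Further: peptides expressed intracellularly from a pBAD plasmid library in pooled LB shake-flask culture, induced with 0.3% L-arabinose, DNA abundance read by NGS, three biological replicates, DESeq2 with apeglm shrinkage.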

RRIRHRPPRLPRPRPRPPPFPRP
shrunken log2 fold change: 0.0505

RRIRFRPPRLPRPRPRPNKYPRP
shrunken log2 fold change: -0.684

RRIRMRPPRLPRPRPRPWTDPRP
shrunken log2 fold change: -0.035

RRIRLRPPRLPRPRPRPTQYPRP
shrunken log2 fold change: -0.696

RRIRRRPPRLPRPRPRPAGSPRP
shrunken log2 fold change: 0.384

RRIRNRPPRLPRPRPRPWCVPRP
shrunken log2 fold change: -0.396

RRIRDRPPRLPRPRPRPKDRPRP
shrunken log2 fold change: 0.0874

RRIRERPPRLPRPRPRPAIHPRP
shrunken log2 fold change: 0.125

RRIRQRPPRLPRPRPRPCPSPRP
shrunken log2 fold change: 0.0332

RRIRDRPPRLPRPRPRPQDTPRP
shrunken log2 fold change: -0.366

RRIRSRPPRLPRPRPRPSNQPRP
shrunken log2 fold change: -0.242

RRIRKRPPRLPRPRPRPKFLPRP
shrunken log2 fold change: 0.119

RRIRPRPPRLPRPRPRPDDIPRP
shrunken log2 fold change: -0.0962

RRIRRRPPRLPRPRPRPPQPPRP
shrunken log2 fold change: 1.26

RRIRARPPRLPRPRPRPSNMPRP
shrunken log2 fold change: -0.28

RRIRDRPPRLPRPRPRPHFMPRP
shrunken log2 fold change: -0.47

RRIRWRPPRLPRPRPRPCQLPRP
shrunken log2 fold change: -0.0812

RRIRIRPPRLPRPRPRPGATPRP
shrunken log2 fold change: -0.0576

RRIRRRPPRLPRPRPRPQGWPRP
shrunken log2 fold change: 0.294

RRIRRRPPRLPRPRPRPIPIPRP
shrunken log2 fold change: -0.0501

RRIRGRPPRLPRPRPRPDMVPRP
shrunken log2 fold change: -0.0595

RRIRRRPPRLPRPRPRPEVSPRP
shrunken log2 fold change: 0.214

RRIRVRPPRLPRPRPRPHKVPRP
shrunken log2 fold change: -0.331

RRIRVRPPRLPRPRPRPAFGPRP
shrunken log2 fold change: 0.18

RRIRNRPPRLPRPRPRPHKHPRP
shrunken log2 fold change: -0.719

RRIRCRPPRLPRPRPRPNLSPRP
shrunken log2 fold change: -0.431

RRIRPRPPRLPRPRPRPAEPPRP
shrunken log2 fold change: -0.0331

RRIRNRPPRLPRPRPRPTGAPRP
shrunken log2 fold change: 0.256

RRIRKRPPRLPRPRPRPGIYPRP
shrunken log2 fold change: 0.107

RRIRFRPPRLPRPRPRPHCPPRP
shrunken log2 fold change: -0.629

RRIRHRPPRLPRPRPRPLCVPRP
shrunken log2 fold change: 2.97

RRIRYRPPRLPRPRPRPIREPRP
shrunken log2 fold change: -0.271

RRIRGRPPRLPRPRPRPWPYPRP
shrunken log2 fold change: -0.265

RRIRKRPPRLPRPRPRPHWTPRP
shrunken log2 fold change: -0.0277

RRIRCRPPRLPRPRPRPTPWPRP
shrunken log2 fold change: 0.49

RRIRFRPPRLPRPRPRPQQIPRP
shrunken log2 fold change: -0.54

RRIRRRPPRLPRPRPRPYLQPRP
shrunken log2 fold change: -0.548

RRIRRRPPRLPRPRPRPFCIPRP
shrunken log2 fold change: -0.174

RRIRSRPPRLPRPRPRPSTAPRP
shrunken log2 fold change: -0.0171

RRIRFRPPRLPRPRPRPNSTPRP
shrunken log2 fold change: -0.671

RRIRPRPPRLPRPRPRPVFRPRP
shrunken log2 fold change: -0.332

RRIRFRPPRLPRPRPRPMHFPRP
shrunken log2 fold change: -0.136

RRIRGRPPRLPRPRPRPCEFPRP
shrunken log2 fold change: 0.0669

RRIRRRPPRLPRPRPRPCLYPRP
shrunken log2 fold change: -0.117

RRIRNRPPRLPRPRPRPFMRPRP
shrunken log2 fold change: 0.269

RRIRVRPPRLPRPRPRPNCHPRP
shrunken log2 fold change: -0.201

RRIRGRPPRLPRPRPRPSGAPRP
shrunken log2 fold change: 0.688

RRIRYRPPRLPRPRPRPLIEPRP
shrunken log2 fold change: -0.442

RRIRVRPPRLPRPRPRPCWCPRP
shrunken log2 fold change: 0.0389

RRIRVRPPRLPRPRPRPLCDPRP
shrunken log2 fold change: -0.108

RRIRNRPPRLPRPRPRPSKDPRP
shrunken log2 fold change: -0.285

RRIRRRPPRLPRPRPRPLPHPRP
shrunken log2 fold change: 0.485

RRIRMRPPRLPRPRPRPNNKPRP
shrunken log2 fold change: -0.183

RRIRNRPPRLPRPRPRPIVGPRP
shrunken log2 fold change: 0.003

RRIRWRPPRLPRPRPRPAGKPRP
shrunken log2 fold change: 0.0305

RRIRTRPPRLPRPRPRPPDQPRP
shrunken log2 fold change: 0.601

RRIRTRPPRLPRPRPRPCDCPRP
shrunken log2 fold change: -0.0712

RRIRRRPPRLPRPRPRPYCPPRP
shrunken log2 fold change: -0.187

RRIRSRPPRLPRPRPRPHYPPRP
shrunken log2 fold change: -0.615

RRIRCRPPRLPRPRPRPRPLPRP
shrunken log2 fold change: 0.319

RRIRMRPPRLPRPRPRPWWYPRP
shrunken log2 fold change: -1.27

RRIRERPPRLPRPRPRPQYPPRP
shrunken log2 fold change: -0.208

RRIRPRPPRLPRPRPRPLYHPRP
shrunken log2 fold change: -0.514

RRIRNRPPRLPRPRPRPWCEPRP
shrunken log2 fold change: 0.034

RRIRARPPRLPRPRPRPHPQPRP
shrunken log2 fold change: 0.45

RRIRRRPPRLPRPRPRPTFYPRP
shrunken log2 fold change: 0.191

RRIRPRPPRLPRPRPRPWRIPRP
shrunken log2 fold change: -0.0585

RRIRIRPPRLPRPRPRPMFWPRP
shrunken log2 fold change: -0.128

RRIRNRPPRLPRPRPRPMLWPRP
shrunken log2 fold change: 0.0244

RRIRQRPPRLPRPRPRPTREPRP
shrunken log2 fold change: -0.081

RRIRMRPPRLPRPRPRPWMWPRP
shrunken log2 fold change: -0.0668

RRIRVRPPRLPRPRPRPRKAPRP
shrunken log2 fold change: -0.124

RRIRLRPPRLPRPRPRPCFAPRP
shrunken log2 fold change: 0.179

RRIRWRPPRLPRPRPRPCIQPRP
shrunken log2 fold change: -0.394

RRIRSRPPRLPRPRPRPAWLPRP
shrunken log2 fold change: 0.534

RRIRSRPPRLPRPRPRPGQAPRP
shrunken log2 fold change: 0.0166

RRIRDRPPRLPRPRPRPMQFPRP
shrunken log2 fold change: -0.0264

RRIRERPPRLPRPRPRPPFDPRP
shrunken log2 fold change: -0.0468

RRIRLRPPRLPRPRPRPPAKPRP
shrunken log2 fold change: 0.529

RRIRYRPPRLPRPRPRPFGVPRP
shrunken log2 fold change: -0.306

RRIRTRPPRLPRPRPRPCGIPRP
shrunken log2 fold change: 0.0859

RRIRFRPPRLPRPRPRPIHHPRP
shrunken log2 fold change: -0.0432

RRIRNRPPRLPRPRPRPFLDPRP
shrunken log2 fold change: -0.358

RRIRTRPPRLPRPRPRPPWLPRP
shrunken log2 fold change: 0.547

RRIRRRPPRLPRPRPRPQAAPRP
shrunken log2 fold change: 0.0105

RRIRWRPPRLPRPRPRPMPSPRP
shrunken log2 fold change: -0.116

RRIRVRPPRLPRPRPRPHKGPRP
shrunken log2 fold change: -0.0569

RRIRIRPPRLPRPRPRPGKAPRP
shrunken log2 fold change: 0.039

RRIRWRPPRLPRPRPRPTTYPRP
shrunken log2 fold change: -0.187

RRIRMRPPRLPRPRPRPKACPRP
shrunken log2 fold change: 0.558

RRIRCRPPRLPRPRPRPISHPRP
shrunken log2 fold change: -0.486
